# Laboratory results as given in patent US20210371508A1 (University of Texas, published 2021).
# B1: NMES1, endogenous, in human breast cancer cells (BoM-1833) (ligand, UniProt Q9C002 1-83, looked up)
# chain: MSFFQLLMKRKELIPLVVFMTVAAGGASSFAVYSLWKTDVILDRKKNPEPWETVDPTVPQKLITINQQWKPIEELQNVQRVTK
# notes: Endogenous protein of the cells used for co-IP and for the cell assays; also called C15orf48
# B2: NMES-1 anti-NMES1 monoclonal antibody (antibody, V domains shown)
# VH: QVQLVQSGGGVVQPGRSLRLSCAASGFTFSSYAMHWVRQAPGKGLEWVAVISYDGSNKYYADSVKGRFTISRDNSKNTLYLQMNSLRAEDTAVYYCARLSRFGDESLKDPDYWGQGTLVTVSS
# VL: DIVMTQSPLSLPVTLGQPASISCRSSQSLVHSDGNTYLNWFQQRPGQSPRRLIYKVSNRDSGVPDRFSGSGSGTDFTLKISRVEAEDVGVYYCMQGAHWPPTFGPGTKLEIK
# notes: also called NM-1; NMES1-1
# B3: NMES-5 anti-NMES1 monoclonal antibody (antibody, IgG1, V domains shown)
# VH: QVQLVQSGAEVKKPGASVKVSCKASGYTFTSYGISWVRQAPGQGLEWMGWISAYNGNTNYAQKLQGRVTMTTDTSTSTAYMELRSLRSDDTAVYYCARATRGNAFDIWGQGTMVSVSS
# VL: QSALTQPASVSGSPGQSITISCTGTSSDVGAYNYVSWYQQHPGKAPKLMIYDVSNRPSGVSNRFSGSKSGNTASLTISGLQAEDEADYYCSSYTRSTTVVFGGGTKVTVL
# notes: also called NM-5; NMES1-5
# B4: NMES-10 anti-NMES1 monoclonal antibody (antibody, IgG1, V domains shown)
# VH: QVQLVQSGAEVKKPGASVKVSCKASGYTFTSYGISWVRQAPGQGLEWMGWISAYNGNTNYAQKLQGRVTMTTDTSTSTAYMELRSLRSDDTAVYYCARATFGNAFDIWGQGTTVTVSS
# VL: QSALTQPASVSGSPGQSITISCTGTSSDVGGYNYVSWYQQHPGKAPKLMIYDVSNRPSGVSNRFSGSKSGNTASLTISGLQAEDEADYYCSSYTSSSTLVVFGGGTKVTVL
# notes: also called NM-10; NMES1-10
# B5: NMES-6 anti-NMES1 monoclonal antibody (antibody, IgG1, V domains shown)
# VH: QVQLVQSGAEVKKPGASVKVSCKASGYTFTSYGISWVRQAPGQGLEWMGWISAYNGNTNYAQKLQGRVTMTTDTSTSTAYMELRSLRSDDTAVYYCARAVGQLAFDYWGQGTLVTVSS
# VL: QSALNQPPSASGSPGQSVTISCTGTSSDVGGYNYVSWYQQHPGKAPKLMIYEVSKRPSGVPDRFSGSKSGNTASLTVSGLQAEDEADYYCSSYAGSNNLVFGGGTKVTVL
# notes: also called NM-6; NMES1-6
# B6: NMES-4 anti-NMES1 monoclonal antibody (antibody, IgG1, V domains shown)
# VH: EVQLVQSGGEVKKPGSSVKVSCKASGGTFSTYAISWVRQAPGQGLEWMGGIIPIFGTTNYAQKFQGRVTITADRSTSTAYMELSSLRSEDTAVYYCARVSELGDYYAMDVWGQGTTVTVSS
# VL: DIQMTQSPSSLSASVGDRVTITCRASQGIASALAWYQQKPGKAPKLLIYDASNLESGVPSRFSGSGSGTDFTLTISSLQPEDFATYYCQQAHSFPLTFGGGTKLEIK
# notes: also called NM-4; NMES1-4
# B7: NMES-7 anti-NMES1 monoclonal antibody (antibody, IgG1, V domains shown)
# VH: EVQLVQSGAEVKKPGASVKVSCKASGYTFNRDAISWVRQAPGQGLEWMGWISGYNGNTYYAHKVLGRATMTTDTSTNTAYMELRSLTSDDTAMYYCARVGLQPDTTMDHWGQGTLVTVSS
# VL: DIQMTQSPSSLSASVGDRVTITCRASQDIRNDLAWYQQKPGKAPKLLIYTASSLQTGVPSRFSGSGSGTDFTLSISSLQPEDFATYYCLQDYKYPLTFGGGTKLEIK
# notes: also called NM-7; NMES1-7
# B8: NMES-3 anti-NMES1 monoclonal antibody (antibody, IgG1, V domains shown)
# VH: EVQLLQSGGGVVRPGGSLRLSCAASGFTFDDYGMSWVRQAPGKGLEWVSGINWNGGSTGYADSVKGRFTISRDNAKNSLYLQMNSLRAEDTALYYCARASMVRGVYAFDIWGQGTMVIVSS
# VL: DVQMTQSPSSLSASIGDRVTITCRASQSIGSYLNWYQQRPGKAPKLLIYSASSLQSGVPSRFSGSGSRSDFTLTIASLQPEDFATYYCQQSYSGPYTFGQGTKVDIK
# notes: also called NM-3; NMES1-3
# Assays:
# [1] = target: T1, transferrin receptor 1 (TFRC) (human, UniProt P02786 1-760); assay: co-IP with α-NMES1 from Ctrl 1833 cells, western blot for TFRC; strong TFRC band
# T1 construct: Endogenous protein in cell or membrane extracts used for co-IP
# T1 sequence (P02786 whole entry): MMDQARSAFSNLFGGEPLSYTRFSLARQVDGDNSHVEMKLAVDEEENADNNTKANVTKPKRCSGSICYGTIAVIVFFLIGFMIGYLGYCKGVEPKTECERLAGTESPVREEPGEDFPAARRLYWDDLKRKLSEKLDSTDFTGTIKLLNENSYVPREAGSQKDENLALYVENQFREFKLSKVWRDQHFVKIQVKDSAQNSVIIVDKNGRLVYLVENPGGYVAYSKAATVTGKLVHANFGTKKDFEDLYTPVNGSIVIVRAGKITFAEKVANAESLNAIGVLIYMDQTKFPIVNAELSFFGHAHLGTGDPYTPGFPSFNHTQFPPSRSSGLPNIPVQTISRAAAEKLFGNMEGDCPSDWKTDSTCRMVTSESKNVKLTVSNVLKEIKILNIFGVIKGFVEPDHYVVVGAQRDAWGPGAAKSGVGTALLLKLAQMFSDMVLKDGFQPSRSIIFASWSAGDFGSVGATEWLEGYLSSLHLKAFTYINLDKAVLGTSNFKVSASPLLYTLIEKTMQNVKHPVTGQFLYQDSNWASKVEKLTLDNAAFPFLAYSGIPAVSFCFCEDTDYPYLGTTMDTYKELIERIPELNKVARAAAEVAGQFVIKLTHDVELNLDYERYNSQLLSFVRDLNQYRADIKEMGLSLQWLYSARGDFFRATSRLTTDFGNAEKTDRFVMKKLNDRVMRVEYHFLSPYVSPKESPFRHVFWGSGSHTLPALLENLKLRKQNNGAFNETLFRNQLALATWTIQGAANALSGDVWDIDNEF
# [2] = target: T1, transferrin receptor 1 (TFRC); assay: co-IP with α-NMES1 from NMES1-KD 1833 cells, western blot for TFRC; weaker TFRC band, number is normalised to the lower input
# [3] = target: T2, recombinant human NMES1 protein (Normal Mucosa of Esophagus Specific 1) (human, UniProt Q9C002 1-83, limits assumed); assay: BLI (Octet), antibody on protein A biosensors, recombinant NMES1 0-900 nM, 1:1 fit
# T2 construct: also called rhNMES1; recombinant NMES1 protein
# Description: (§1) Binding constants (EC50) of a panel of monoclonal antibodies were estimated by titration ELISA and data is analyzed using the 4 parameter curve fitting with GraphPad Prism program (Table 5). […] All experiments were performed with shaking at 1,000 rpm. Background wavelength shifts were measured from reference biosensors that were loaded only with antibody with antigen. ForteBio's data analysis software was used to fit the data to a 1:1 binding model to extract an association rate and dissociation rate.
# [4] = target: T2, recombinant human NMES1 protein (Normal …); assay: titration ELISA, plate coated with recombinant NMES1 (1 µg/mL), anti-human IgG Fc HRP detection
# Description: as §1
# Anti-human IgG Fc HRP-conjugated antibody was diluted 1:5000 and added at a volume of 100 μl per well for incubation at 37° C. for 1 hour. The plates were washed 3 times with PBST (0.05% Tween-20) between incubation steps. TMB substrate was added 100 μl per well for color development and 2 M H2504 was added 50 μl per well to stop the reaction. The absorbance at 450 nm was read by SpectraMax microplate reader. For EC50 determination, data points were plotted by GraphPad Prism8. EC50 values were calculated using a three-parameter nonlinear model.
Binder,"Fold (IP/Input), TFRC [1]","Fold (IP/Input), TFRC [2]",Kd [3],koff [3],kon [3],EC50 [4]
B1,79.8 fold,74.9 fold,,,,
B2,,,15.5 nM,0.00499 s⁻¹,323000 M⁻¹ s⁻¹,2.98 nM
B3,,,27.9 nM,0.00463 s⁻¹,166000 M⁻¹ s⁻¹,0.216 nM
B4,,,89.9 nM,0.0131 s⁻¹,146000 M⁻¹ s⁻¹,306 nM
B5,,,19.5 nM,0.00441 s⁻¹,227000 M⁻¹ s⁻¹,2.39 nM
B6,,,17.1 nM,0.00382 s⁻¹,223000 M⁻¹ s⁻¹,4.37 nM
B7,,,39.8 nM,0.00595 s⁻¹,150000 M⁻¹ s⁻¹,14.4 nM
B8,,,56 nM,0.00301 s⁻¹,53800 M⁻¹ s⁻¹,40.6 nM
